Here are results for two sequences from the supplement of paper PMC5998384.

The subject of data set [1] is HeLa Kyoto. Kind of data set: solubility in G1/S (NP-40 vs SDS abundance) (log2 ratio); higher = more soluble. To be noted: cell cycle stage: G1/S.
The subject of data set [2] is HeLa Kyoto. The data set is described as follows: melting temperature (median over replicates), in situ; higher = more thermally stable.
Data set [3] deals with HeLa Kyoto. The data set is described as follows: solubility change mitosis vs G1/S (difference of NP-40 vs SDS log2 ratios) (log2 ratio difference); higher = more soluble in mitosis.
Data set [4] relates to HeLa Kyoto. The data set is described as follows: thermal stability score vs G1/S (z-score of summed log2 fold changes over temperatures); higher = more thermally stable than in G1/S.
Where [5] appears, read: cell cycle stage: early G1 (4.5 h after nocodazole release).
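Throughout, for melting temperature (median over replicates), in situ: HeLa Kyoto cells synchronized by double thymidine or nocodazole block, proteins quantified by TMT10plex mass spectrometry, three independent biological replicates.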
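Throughout, for solubility change mitosis vs G1/S (difference of NP-40 vs SDS log2 ratios): synchronized HeLa Kyoto cells (double thymidine block for G1/S, nocodazole release for mitosis), protein amounts in NP-40 versus SDS lysates quantified by mass spectrometry, three biological replicates.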
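Throughout, for solubility in G1/S (NP-40 vs SDS abundance): HeLa Kyoto cells arrested at G1/S by double thymidine block, proteins quantified by TMT10plex mass spectrometry in mild NP-40 versus SDS extracts, three biological replicates.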
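Throughout, for thermal stability score vs G1/S (z-score of summed log2 fold changes over temperatures): synchronized HeLa Kyoto cells, proteins quantified by TMT10plex mass spectrometry, three biological replicates, mitosis taken 0.5 h after nocodazole release, G1/S directly after double thymidine block.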

With “MAGIAAKLAKDREAAEGLGSHDRAIKYLNQDYEALRNECLEAGTLFQDPSFPAIPSALGFKELGPYSSKTRGIEWKRPTEICADPQFIIGGATRTDICQGALGDCWLLAAIASLTLNEEILARVVPLNQSFQENYAGIFHFQFWQYGEWVEVVVDDRLPTKDGELLFVHSAEGSEFWSALLEKAYAKINGCYEALSGGATTEGFEDFTGGIAEWYELKKPPPNLFKIIQKALQKGSLLGCSIDITSAADSEAITFQKLVKGHAYSVTGAEEVESNGSLQKLIRIRNPWGEVEWTGRWNDNCPSWNTIDPEERERLTRRHEDGEFWMSFSDFLRHYSRLEICNLTPDTLTSDTYKKWKLTKMDGNWRRGSTAGGCRNYPNTFWMNPQYLIKLEEEDEDEEDGESGCTFLVGLIQKHRRRQRKMGEDMHTIGFGIYEVPEELSGQTNIHLSKNFFLTNRARERSDTFINLREVLNRFKLPPGEYILVPSTFEPNKDGDFCIRVFSEKKADYQAVDDEIEANLEEFDISEDDIDDGFRRLFAQLAGEDAEISAFELQTILRRVLAKRQDIKSDGFSIETCKIMVDMLDSDGSGKLGLKEFYILWTKIQKYQKIYREIDVDRSGTMNSYEMRKALEEAGFKMPCQLHQVIVARFADDQLIIDFDNFVRCLVRLETLFKIFKQLDPENTGTIELDLISWLCFSVL [CAPN2]”, the “solubility in G1/S (log2)” value in the data set with HeLa Kyoto [1] was -0.0212. For the same sequence, the melting temperature with HeLa Kyoto [2] (cell cycle stage: G1/S) came out at 55.4 °C; in the data set with HeLa Kyoto [2] (cell cycle stage: mitosis), 54.9 °C. Further, the “solubility change mitosis (log2)” value in the data set on HeLa Kyoto [3] was -0.183. The thermal stability score in the data set with HeLa Kyoto [4] (setting [5]) was -0.784; in the data set on HeLa Kyoto [4] (cell cycle stage: mitosis) it was -1.57.
Consider “MAGIIKKQILKHLSRFTKNLSPDKINLSTLKGEGELKNLELDEEVLQNMLDLPTWLAINKVFCNKASIRIPWTKLKTHPICLSLDKVIMEMSTCEEPRSPNGPSPIATASGQSEYGFAEKVVEGISVSVNSIVIRIGAKAFNASFELSQLRIYSVNAHWEHGDLRFTRIQDPQRGEVLTFKEINWQMIRIEADATQSSHLEIMCAPVRLITNQSKIRVTLKRRLKDCNVIATKLVLILDDLLWVLTDSQLKAMVQYAKSLSEAIEKSTEQRKSMAPEPTQSSTVVASAQQVKTTQTSNAPDVNDAIVKLFNDFDVKETSHHLVISHLDLHICDDIHAKEKESNRRITGGAMQLSFTQLTIDYYPYHKAGDSCNHWMYFSDATKTKNGWANELLHEFECNVEMLKQAVKDHNVGSPPKSPTHASPQHTQTEKDYPLKGTCRTPSVLSQQSKAKLMSSSVVVRLADFNIYQVSTAEQCRSSPKSMICCNKKSLYLPQEMSAVYIEFTEYYYPDGKDFPIPSPNLYSQLNALQFTVDERSILWLNQFLLDLKQSLNQFMAVYKLNDNSKSDEHVDVRVDGLMLKFVIPSEVKSECHQDQPRAISIQSSEMIATNTRHCPNCRHSDLEALFQDFKDCDFFSKTYTSFPKSCDNFNLLHPIFQRHAHEQDTKMHEIYKGNITPQLNKNTLKTSAATDVWAVYFSQFWIDYEGMKSGKGRPISFVDSFPLSIWICQPTRYAESQKEPQTCNQVSLNTSQSESSDLAGRLKRKKLLKEYYSTESEPLTNGGQKPSSSDTFFRFSPSSSEADIHLLVHVHKHVSMQINHYQYLLLLFLHESLILLSENLRKDVEAVTGSPASQTSICIGILLRSAELALLLHPVDQANTLKSPVSESVSPVVPDYLPTENGDFLSSKRKQISRDINRIRSVTVNHMSDNRSMSVDLSHIPLKDPLLFKSASDTNLQKGISFMDYLSDKHLGKISEDESSGLVYKSGSGEIGSETSDKKDSFYTDSSSILNYREDSNILSFDSDGNQNILSSTLTSKGNETIESIFKAEDLLPEAASLSENLDISKEETPPVRTLKSQSSLSGKPKERCPPNLAPLCVSYKNMKRSSSQMSLDTISLDSMILEEQLLESDGSDSHMFLEKGNKKNSTTNYRGTAESVNAGANLQNYGETSPDAISTNSEGAQENHDDLMSVVVFKITGVNGEIDIRGEDTEICLQVNQVTPDQLGNISLRHYLCNRPVGSDQKAVIHSKSSPEISLRFESGPGAVIHSLLAEKNGFLQCHIENFSTEFLTSSLMNIQHFLEDETVATVMPMKIQVSNTKINLKDDSPRSSTVSLEPAPVTVHIDHLVVERSDDGSFHIRDSHMLNTGNDLKENVKSDSVLLTSGKYDLKKQRSVTQATQTSPGVPWPSQSANFPEFSFDFTREQLMEENESLKQELAKAKMALAEAHLEKDALLHHIKKMTVE [UHRF1BP1L]”, for which the “solubility in G1/S (log2)” value with HeLa Kyoto [1] is -0.0678. For the same sequence, the melting temperature in the data set on HeLa Kyoto [2] (cell cycle stage: G1/S) is 53.9 °C; in the data set with HeLa Kyoto [2] (cell cycle stage: mitosis), 53.8 °C. Moreover, the “solubility change mitosis (log2)” value with HeLa Kyoto [3] was -0.181. The thermal stability score with HeLa Kyoto [4] (setting [5]) was -1.27; with HeLa Kyoto [4] (cell cycle stage: mitosis) it was -1.34.
